19 sequences from the DeepSol protein solubility set can be followed below.

A short description of this series: soluble on expression in E. coli; label from the status in PepcDB or PDB records.
“MDAELFPRTRAETAPGAVHLPDWLSPGQQRELLDACREWARPPAGLRTVRTPGGGTMTARQVCLGRHWYPYGYAATAVDGDGAPVKPFPARLDGLARRAVTDALGAEAVAPAPYDIALINFYDADARMGMHRDADERTDAPVVSLSLGDTCVFRFGNPETRTRPYTDTELRSGDLFVFGGPSRLAYHGVPRVHPGTAPPELGLRGRLNITLRVSGFLEHHHHHH”: the “soluble on expression in E. coli” value was “not soluble”.

As for “MAKGTPVTLTTNTEGATIYYTLDGSNPTNKSVRYNGRIVVNENSVIKAIAEKEGLTSSAISTFSFVIVNNEPVRIHDIQGKSHLSPYNGKKVYNVEGVVTALDKNGFYIEDNQPDNDPATSEGMYVYKKDANVAVGDLIQVDGVVEEYVGPGYAERFDTDLTTTEIKASRVVVIAKDQVLPAPIVLGENGVKIPDQIIDNDAFGLFDPNEDAIDFYESVEGMRVTMPTPKIIAPQKNGNLYVTVKNGGNKVVTKYGTPVLDENQLNPERLSVKVPRDYVAKVGDTFTGDITGVVGYDYGSFRIAPITELPSVVDGGFKQIGANIQPRLEHHHHHH”, the “soluble on expression in E. coli” value is “not soluble”.

In the case of “MKIFVLSIRPEEKAQRTGGACFDILNVPVTRLEPIPVDYTDLIRSGVDCVAFTSSYGVRLFFKNAPVKNFRYFGIGKSTCEEVRKYGYDCEYPEKMDSEGLADMIISHCSGRKVALIRSANANEIVNEKIMGHVDFIDLRNYRAVNTNVDLTPYMAKEECMGIIVTSSMEAKIAMPAIKATGKPVYSIGSVTTKTLEEAGIHPAISGNSDFVDLVEKIKKYLCLV”, the “soluble on expression in E. coli” value is “not soluble”.

As for “MGSDKIHHHHHHMAFTNNVMIVRHGLLAKLVKLWKENRLLEEIDRLPIELSPRKSKVRGRCCVHKERAVWKYKTLPLLGFDMQDEEDELTPLSEYAKRALFRSENKKENIMCVVDEACSSCVSVNYEITNLCRGCVARSCYMNCPKDAIRFKKNGQAEIDHETCISCGKCHQSCPYHAIVYIPIPCEEVCPVKAISKDKYGVEHIDESKCIYCGKCVNACPFGAIFEISQVFDILQRLRNKEQMVAIVAPSILAQFSAPKEKVYGAIKSLGFEEVVEVAQGAMETTRHEAEELIEKLKEGQPFMTTSCCPSYVQLAEKHIPDLKKYISSTGSPMYYTARIVKEKYPDAKIVFVGPCVAKRKEVKLDPCVDFTLTFEEVGSVLEGLGIKIEEAQPFSVLFNAVREAHGFAQSGGVINAVKVYLKDENVNAVQVANLTKKNVALLRAYAKTGKAPAQFIEVMACEGGCVTGPCTHADKTAGQKQLIKELTKF”, the “soluble on expression in E. coli” value was “not soluble”.

As for “MGSSHHHHHHSSGLVPRGSHMSLNILGYDVGGTKISTVVGNDSGEILSNVRMPTVKHLGKKRLIEEMITMGDAALKKAHVEKPDLIGIIFAGPVDRNRGVVIASPNIFGLSNFNIVEPIRDYYRTDTFLENDAQAAAIAERLFGSGRNVDNFVYMTLSTGIGGGIFINGKLYRGAHGMAGEIGHNVIMVNGPTCGCGRRGCLEALAGGKAIARRVIENLRAVRDSDFFSKLRPNEITAEKVFEGKKQGDMFSQLILEETIYYLAVGLVNIINTLDPELVIIGGGISKAGKDLFDPLNDAVKEEFKSMYRPFKIVPGLENGSDLAAISVPLYTEMELHGEGEKQY”, the “soluble on expression in E. coli” value is listed as “soluble”.

On to “MIAARQVSKPIADAVLRYGKDHPVFRNKLLLPIGRGLVRFTSRLRMKRLGLGEPISQAPISESAALEQASDFVQQLVLFSYSVGVFAGYYFYTKMTTPESLKIEDYEEFKQQQERAIKELRLQVESLEQRLAAQQKRNFFSQLGFSKENGDESPPKPSQQAPPPEKPSEEKKPATESLKQRFQRISSLPIDAAASLILDDEEYLVVRRGSSVGIELSVNFAARGDRLRYRIPSPKLRESCAQMALKEAACHVIGAKDRSRFRYVNS”, for which the “soluble on expression in E. coli” value is given as “not soluble”.

As to “MNIKFKPVEPADRSAITTITFSSVARICDLAFSNLYCWSFVYGTSWAIVEGCLIIRFKPKSRSHPVYLFPVGADPEQVVAAAHRLKAEVVHEDYPLIFMGVTPDIHRCIEEHCSAEYYFIEDEAYCDYIYERESLATLSGKKLQAKRNHINKFVSLYPDYTYDPVKDSDAEECLMLAHLWLDSRGDQDGRELEVEMVERAFRHRQELGLSGGVLRVGGRVVAFCLGSPINTDTFGVHIEKADAMVEGAFAMINREFARSIPDTFRYINREEDLGLPGLRQAKLSYRPAILLPKQTAILRRDHDRIQA”, the “soluble on expression in E. coli” value is given as “not soluble”.

As to “MGSDKIHHHHHHMTNTETIQSLIDSGEGYNVEFKVRVPSKVRELTEEICAFANADGGYLLIGVDDNGQIIGTGLENDKRSAIQGSISEISPALHCDMYAVNIEDKTVWVIDVPSGKDKPYIFSGSIFVREGANSQKLRTVEEMRSFFQECNKIFFDAIPCSWFNIYTDADEQAIKDFRTEAKLSPSTANKQIFENLELFTDNGVAKNGTAMFFGKQPERKFPHAVTRCVLFKGTTKVYIIDDKTFGGPLYQQYLQAMAWLESKLQVAYKIEGAGPREEIWEIPLTVFKEAIINALSHRDYYEQGATITIEMFDDRVEVSNPGGLLPIVAKDFGHKSMTRNPLIFGLFTRMHLVERVASGIPRMQEAMKEANLPEPDFHTDGMFTVIFKRGISIKNDTVNDTVNDTVNDTVNSKEKEVLKIIQKYPGLNSSKIAELIKKSIPTAKRHLNSLVKSGLIEFRGAQKTGGYYIINQQ”, the “soluble on expression in E. coli” value is listed as “not soluble”.

As for “TEDSLMPEEEFLRRNKGPVSIKVQVPNMQDKTEWKLNGQGLVFTLPLTDQVSVIKVKIHEATGMPAGKQKLQYEGIFIKDSNSLAYYNMASGAVIHLALKER”, the “soluble on expression in E. coli” value was “soluble”.

“MSTYEGRWKTVKVEIEDGIAFVILNRPERRNAMSPTLNREMIDVLETLEQDPAAGVLVLTGAGEAWTAGMDLKEYFREVDAGPEILQEKIRREASQWQWKLLRMYAKPTIAMVNGWCFGGGFAPLVACDLAICADEATFGLSEINWGIPPGNLVSKAMADTVGHRQSLYYIMTGKTFGGQKAAEMGLVNESVPLAQLREVTIELARNLLEKNPVVLRAAKHGFKRCRELTWEQNEDYLYAKLDQSRLLDTEGGREQGMKQFLDDKSIKPGLQAYKR”: the “soluble on expression in E. coli” value is recorded as “soluble”.

Regarding “MGSDKIHHHHHHMAKLYFYYSTMNAGKSTTLLQSDYNYRERNMNTLVYTAAIDDRFGKGKVSSRIGIHRQANLFHKDTDLFTEIALHIKQQKLHCILIDEAQFLTKAQVYQLSNVVDELNIPVLCYGLRTDFQAELFEGSKYLLAWADQLEELKTICYCGRKANFVLRLNEQGKAVKDGEQIQIGGNDSYMSVCRKHYKEILYSSNE”, the “soluble on expression in E. coli” value is “not soluble”.

Turning to “MGSSHHHHHHSSGLVPRGSGDPDEQYDFLFKLVLVGDASVGKTCVVQRFKTGAFSERQGSTIGVDFTMKTLEIQGKRVKLQIWDTAGQERFRTITQSYYRSANGAILAYDITKRSSFLSVPHWIEDVRKYAGSNIVQLLIGNKSDLSELREVSLAEAQSLAEHYDILCAIETSAKDSSNVEEAFLRVATELIMRHGGPLFS”, the “soluble on expression in E. coli” value is “soluble”.

“MGSDKIHHHHHHMTKLAIMSDLHIDLNHFSTFETKTLINLLKKEKIDHLHIAGDISNHFTKDTLPFINNLKKHIKLSYNLGNHDMLDLTETEIQRLDFQTYRFDKKMLLAFHGWYDYSFSNNRDIKDVEKLKKTFWFDRRLKRPNNDVTIQASILKRLDEILAKVDSSNIIIAMHFVPHKQFTMTHPRFSPFNAFLGSQAYHDLFQKYHIKDVVFGHAHRSFGDVKIGETTYHSRPLGYIREWNLTIDFVNQNPNHNPNLTWNLSKRYNAVKHLDSFENYRKKYFEDELRNSMTIFDC”: the “soluble on expression in E. coli” value is “not soluble”.

Take “GMQMNNHIRLRKAEGKWVIRTDSAVLGETLNAIELTEGSRDPVIYFPREDVAMVMFDKSEKVTACPLKGEASYYSIVGASGTLKDAAWSYESPKEGLEAIAGYLAFAPDCTKVGQY”: the “soluble on expression in E. coli” value is recorded as “soluble”.

Consider “MSLGLAIIHSRASIGVQAPPVTVEVHISNGMPGFTLVGLPETTVKESRDRVRSAIINSRFEFPAKRITVNLAPADLPKEGGRFDLPIALGILAASDQIARNKLESYEFIGELALSGEIRGVKGVLPAALAANQVERCLVVPHSNGDQAALVGVERHKSAQSLLEVCADLCGQQTLSLFQSSPSVQQVSQTRDLQDIIGQQQGKRALEIAAAGNHNLLFLGPPGTGKTMLASRLCDLLPEMSDEEAMETASIASLTQQEINQHNWKLRPFRAPHHSSSMAALVGGGTIPRPGEISLAHNGLLFLDEMPEFERKVLDSLREPLESGEIVISRAQGKTRFPARFQLVGALNPSPTGYYEGSQARANPQSILRYLSRLSGPLLDRFDMSIEIPALPKGTLANGGDRGESTAAVRQRVWVARERMLARSGKVNALLQSREIEQYCPLLKADAEFLESALHRLGLSIRAYHRIIKVARTIADLQGEAQIARPHLAEALGYRAMDRLLKQLSAQNEGHHHHHH”, for which the “soluble on expression in E. coli” value is on record as “soluble”.

For “MSLNKPVLPKPAPSISSLSLKLPKADRSIETYRLAASRTFPARLEGPLNRIAFSAVHTVADPFADNDPWLSVAVDWDKTIAFREHVWDLGLGVAEAMDTAQRGMGLDWPTSLELITRSVAAAKRRNALVFSGAGTDHLAVEDARTVDDVIRAYEEQISAVEKVGGRIILMASRALAKLGRNADDYAKVYDRVLSQVREPVIIHWLGDMFDPALTGYWGTKDLDKAMDVAVAVINANAAKVDGVKVSLLDKQREIDMRRRLDKRIRMYTGDDFNYAELIAGDSQGFSHALLGIFDAIAPAASYALSRLAAGDEAGFHDVLGPTVPLSRHIFKAPTRFYKTGVVFMAYLNGHQDHFTMVGGQESARSMLHLAELFRLADQAGLLANPELATRRMTTVLASHGIESEGHHHHHH”, the “soluble on expression in E. coli” value is on record as “not soluble”.

For the sequence “MGSDKIHHHHHHMFTPRGFKFAGVHCKIKRKRKDLGIIFSEVPCVAAGVFTTNVVKAAPVIYDMEILKKNPNGIKAVVVNSGVANACTGEQGMINARRMAEKTAEELGVPVESVLVSSTGVIGVQLPMDKVENGIEEAARVLSNDPLPFAEAIMTTDTKVKMHSTKVMIDGKEITVLGIAKGSGMIHPNMATMLSFITTDAKISEEALKKLLKLSVDDSYNMIDVDGDTSTNDMVIVLANGLAGNTTIQPETDGFWKLYEAVHEVNQVLAEKIVEDGEGATKVMEVHVINAPDIKSARLIARSIVSSNLVKTAIYGEDANWGRVIAAAGYSGATFDPEKLDLFFESEAGRIKVAENGQGVSFDEEEAKKILSEKKIRIILDMKQGKETAKAWGCDLTEKYVEINGRYRT”, the “soluble on expression in E. coli” value is “not soluble”.

As to “MEYLDEIKTLGLKPNTITYSMLMLASERKDDFEVSFKLLSQAKGDGVSPNLIMCRCITSLCKRRFEKACAGGEPVVSFKSGRPQIENKWTSMALMVYRETISGGTVPTTEVVSQVLGCLQLPHDAALRDRLISTLGINISSQKQHNIFPLVDGFGEYDPRAFSLLEEATSLGVLPSVSFNKIPLFFDTTELPKNVAEVYLLTIFKGLKHRLAAGAKIPHINLIISIQEKEIRTPEGEKTIDLTGRVGQEIGALLRRGFKIIASTIRKPNQSSATQHSTREPVT”, the “soluble on expression in E. coli” value is on record as “not soluble”.

For the sequence “MGSDKIHHHHHHMENVVPPFKVDVAGTFLLPAALREAREQYRNEQISLLTLRAVEDAEIRNLVDRLKAEGLKVVTDGRFRSDAWPLDFMCGLDGIRFRDDRKTSVELTGRIDVHHHPVLDDFVFLTGVTGGDVIAKQVLPAPSRLLAELMKDANRTELDSVYPDREILLVDLAQTYQKLIMELYRSGCRYLQLDDATRTVTDNAIRVNNMALENLPADLFIAFHSPTEMLFSLQGIHAFFLDYDSECCGKNRLLWFIREKQSVFGFVLSHYPVEEELEELRAKIDQIIRYIPSHRFSLCIPNAEVLPSESYEAAEEKQWHTLKMAEMVAGELWPEEG”, the “soluble on expression in E. coli” value is given as “not soluble”.
